Drawing on publication PMC4732737, this text covers fold reduction of affinity against the wild-type trimer for one substance.

Experiment [1] concerns the target AviB-tagged BG505 SOSIP.v4.2 trimer (HIV-1). The experiment in a line: BLI. In general terms: Biolayer interferometry detects binding as a change in optical thickness at a sensor tip.
Experiment [2] deals with AviB-tagged BG505 SOSIP.664 A316W trimer (HIV-1). In words: BLI.

As for soluble CD4 (domain or fragment), the fold reduction of affinity against the wild-type trimer in experiment [1] and in experiment [2] was 2.4 fold throughout.
